The target of assay [1] is T1, human plasma kallikrein (human, UniProt P03952 20-390; P03952 391-638). In words: cell-based or functional assay.
Assay [2] has as its target T1, human plasma kallikrein. The experiment in a line: SPR, pH 7.4, 37° C. A general note: In SPR one partner is held on a chip, and binding of the other changes the refractive index at the surface.
Assay [3] has as its target cynomolgus monkey plasma kallikrein (cynomolgus monkey, UniProt P03952 20-638 (human entry), limits assumed). In words: cell-based or functional assay.
Another assay deals with rabbit plasma kallikrein (rabbit). The experiment in a line: cell-based or functional assay.
Chain of rabbit plasma kallikrein (rabbit) (chain, as listed by the source limits assumed): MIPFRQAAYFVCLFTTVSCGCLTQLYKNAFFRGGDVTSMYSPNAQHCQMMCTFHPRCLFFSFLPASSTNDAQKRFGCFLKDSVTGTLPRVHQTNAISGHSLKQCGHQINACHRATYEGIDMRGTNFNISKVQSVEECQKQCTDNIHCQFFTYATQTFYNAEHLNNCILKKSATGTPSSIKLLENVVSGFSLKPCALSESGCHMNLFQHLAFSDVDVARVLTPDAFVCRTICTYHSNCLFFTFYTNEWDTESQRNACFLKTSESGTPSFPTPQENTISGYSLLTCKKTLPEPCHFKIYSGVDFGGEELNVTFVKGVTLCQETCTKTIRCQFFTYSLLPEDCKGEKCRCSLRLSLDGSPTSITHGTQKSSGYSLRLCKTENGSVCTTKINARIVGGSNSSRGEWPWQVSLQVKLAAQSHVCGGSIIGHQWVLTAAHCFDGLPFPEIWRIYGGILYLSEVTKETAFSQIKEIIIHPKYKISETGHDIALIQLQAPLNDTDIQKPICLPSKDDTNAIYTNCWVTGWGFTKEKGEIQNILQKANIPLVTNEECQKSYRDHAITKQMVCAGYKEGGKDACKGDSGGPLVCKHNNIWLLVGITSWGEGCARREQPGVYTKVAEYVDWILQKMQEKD
In another assay the target is rat plasma kallikrein (rat, UniProt P14272 20-638, limits assumed). The experiment in a line: cell-based or functional assay.
Chain of rat plasma kallikrein (P14272 20-638 limits assumed): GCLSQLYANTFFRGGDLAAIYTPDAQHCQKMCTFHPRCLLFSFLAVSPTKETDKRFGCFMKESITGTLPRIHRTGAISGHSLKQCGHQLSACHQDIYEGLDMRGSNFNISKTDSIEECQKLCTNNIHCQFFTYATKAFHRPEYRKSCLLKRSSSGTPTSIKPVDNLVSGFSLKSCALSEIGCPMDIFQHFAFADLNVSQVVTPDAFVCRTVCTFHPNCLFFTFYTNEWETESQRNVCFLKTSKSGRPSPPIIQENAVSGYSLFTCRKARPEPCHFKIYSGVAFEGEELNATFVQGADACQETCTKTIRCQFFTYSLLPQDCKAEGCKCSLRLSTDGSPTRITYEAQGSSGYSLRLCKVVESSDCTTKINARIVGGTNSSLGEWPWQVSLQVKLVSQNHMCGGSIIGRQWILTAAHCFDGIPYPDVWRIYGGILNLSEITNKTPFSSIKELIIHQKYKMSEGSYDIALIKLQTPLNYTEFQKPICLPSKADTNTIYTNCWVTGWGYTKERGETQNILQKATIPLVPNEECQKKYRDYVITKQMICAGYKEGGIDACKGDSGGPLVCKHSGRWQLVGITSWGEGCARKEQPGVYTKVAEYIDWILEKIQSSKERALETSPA
For assay [4], the target named is T1, human plasma kallikrein. The experiment in a line: cell-based or functional assay. This is another data set of the same source.
The target in assay [5] is T1, human plasma kallikrein. In words: cell-based or functional assay. This is another data set of the same source.
The target in assay [6] is T1, human plasma kallikrein. In words: SPR, pH 6.0, 37° C.; pH 6.0, 37° C.
Assay [7] has as its target T1, human plasma kallikrein. In words: SPR, 37° C.; reference: human prekallikrein.
In assay [8] the target is T2, human FcRn (Sino Biological, Cat. No. CT009-H08H) (human, UniProt P55899 24-297; P61769 21-119).
T2 construct: Coupled to the Biacore chip; also called hFcRn
T2 sequence (P55899 24-297 limits assumed, chain 1 of 2): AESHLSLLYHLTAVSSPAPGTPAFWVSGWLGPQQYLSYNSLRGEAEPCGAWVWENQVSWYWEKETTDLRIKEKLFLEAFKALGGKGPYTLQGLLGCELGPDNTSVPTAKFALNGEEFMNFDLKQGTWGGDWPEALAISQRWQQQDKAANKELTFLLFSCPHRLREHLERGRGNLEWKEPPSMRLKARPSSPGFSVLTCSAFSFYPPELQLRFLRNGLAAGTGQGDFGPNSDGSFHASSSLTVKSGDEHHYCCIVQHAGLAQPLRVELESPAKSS
T2 sequence (P61769 21-119 limits assumed, chain 2 of 2): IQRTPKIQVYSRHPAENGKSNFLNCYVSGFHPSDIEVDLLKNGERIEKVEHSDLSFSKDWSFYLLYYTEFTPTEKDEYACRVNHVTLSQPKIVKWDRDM
The experiment in a line: SPR, Biacore T200, human FcRn on the chip, pH 6.0.

For assay [9], the target named is T1, human plasma kallikrein. In words: SPR, 37 C, 50 mM HEPES, 150 mM NaCl, 0.1 mM Ca++, 1 mg/ml BSA, 0.02% tween-20, pH 6.0.
The target in assay [10] is T3, human prekallikrein (human, UniProt P03952 20-638).
T3 construct: Zymogen form
T3 sequence (P03952 20-638 limits assumed): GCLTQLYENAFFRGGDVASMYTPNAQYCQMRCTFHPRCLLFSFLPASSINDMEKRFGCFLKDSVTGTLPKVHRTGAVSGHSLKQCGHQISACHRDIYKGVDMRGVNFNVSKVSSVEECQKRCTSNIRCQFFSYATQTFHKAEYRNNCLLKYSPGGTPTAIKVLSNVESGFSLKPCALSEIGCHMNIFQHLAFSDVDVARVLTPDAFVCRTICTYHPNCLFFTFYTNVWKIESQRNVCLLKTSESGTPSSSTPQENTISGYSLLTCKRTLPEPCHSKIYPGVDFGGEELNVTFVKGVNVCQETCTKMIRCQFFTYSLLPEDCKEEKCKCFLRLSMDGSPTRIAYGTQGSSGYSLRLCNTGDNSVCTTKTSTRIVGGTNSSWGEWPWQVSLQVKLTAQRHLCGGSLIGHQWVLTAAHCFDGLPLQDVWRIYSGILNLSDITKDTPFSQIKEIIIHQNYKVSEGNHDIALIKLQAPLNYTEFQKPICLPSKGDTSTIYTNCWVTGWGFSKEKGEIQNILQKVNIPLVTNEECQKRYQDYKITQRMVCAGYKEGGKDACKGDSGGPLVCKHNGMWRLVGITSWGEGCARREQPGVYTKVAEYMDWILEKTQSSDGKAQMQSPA
The assay is described as above.

Assay [11] deals with T3, human prekallikrein. In words: SPR, 37 C, 50 mM HEPES, 150 mM NaCl, 1.3 mM Ca++, 1 mg/ml BSA, 0.02% tween-20, pH 7.4.
The target of assay [12] is T2, human FcRn (Sino Biological, Cat. No. …). The experiment in a line: SPR, Biacore T200, human FcRn on the chip, pH 6.0; pH 6.0; hFcRn on the chip.
Assay [13] addresses T1, human plasma kallikrein. The experiment in a line: SPR, pH 7.4, 37° C.; pH 7.4, 37° C.
In assay [14] the target is T2, human FcRn (Sino Biological, Cat. No. …).
The target of assay [15] is T3, human prekallikrein. The experiment in a line: SPR, 37 C, 50 mM HEPES, 150 mM NaCl, 0.1 mM Ca++, 1 mg/ml BSA, 0.02% tween-20, pH 6.0 (this table has no pH labels; lower row taken as pH 6.0 as in the labelled table beside it).
The target in assay [16] is T3, human prekallikrein. In words: SPR, 37 C, 50 mM HEPES, 150 mM NaCl, 1.3 mM Ca++, 1 mg/ml BSA, 0.02% tween-20, pH 7.4 (this table has no pH labels; upper row taken as pH 7.4 as in the labelled table beside it).
Assay [17] deals with T1, human plasma kallikrein. In words: SPR, 37 C, 50 mM HEPES, 150 mM NaCl, 0.1 mM Ca++, 1 mg/ml BSA, 0.02% tween-20, pH 6.0 (this table has no pH labels; lower row taken as pH 6.0 as in the labelled tables beside it).
For assay [18], the target named is T1, human plasma kallikrein. The experiment in a line: SPR, 37 C, 50 mM HEPES, 150 mM NaCl, 1.3 mM Ca++, 1 mg/ml BSA, 0.02% tween-20, pH 7.4 (this table has no pH labels; upper row taken as pH 7.4 as in the labelled tables beside it).
Assay [19] addresses T1, human plasma kallikrein. In words: SPR, pH 6.0, 37° C.
The target of assay [20] is trypsin, human pancrease (Cat #16-19-032000, Athens Research and Technology Inc) (human). In words: cell-based or functional assay.
Assay [21] concerns the target T1, human plasma kallikrein. The experiment in a line: SPR, 37° C., pH 6 against pH 7.4.
The target of assay [22] is T1, human plasma kallikrein. In words: cell-based or functional assay. This is another data set of the same source.
Assay [23] deals with T1, human plasma kallikrein. The experiment in a line: cell-based or functional assay. The source holds these as a separate data set.

By Kd is commonly meant the constant that tells how readily two partners part at equilibrium. Usually koff stands for the first-order rate constant of dissociation. For orientation: kon means the rate constant with which the complex forms.

Where two headings read alike, the source gives them in different places.

T1 sequence (P03952 20-390 S143N limits assumed, chain 1 of 2): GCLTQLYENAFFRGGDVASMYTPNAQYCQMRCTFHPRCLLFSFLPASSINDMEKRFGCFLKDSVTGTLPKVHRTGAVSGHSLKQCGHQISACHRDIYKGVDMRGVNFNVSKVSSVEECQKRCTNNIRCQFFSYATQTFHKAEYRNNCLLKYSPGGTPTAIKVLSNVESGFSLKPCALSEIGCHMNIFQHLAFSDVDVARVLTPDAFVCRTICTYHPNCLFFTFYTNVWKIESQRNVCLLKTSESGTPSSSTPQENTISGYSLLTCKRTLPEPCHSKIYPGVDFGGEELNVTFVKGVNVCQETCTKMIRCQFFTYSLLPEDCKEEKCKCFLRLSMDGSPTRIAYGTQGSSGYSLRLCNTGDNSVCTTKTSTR
T1 sequence (P03952 391-638 limits assumed, chain 2 of 2): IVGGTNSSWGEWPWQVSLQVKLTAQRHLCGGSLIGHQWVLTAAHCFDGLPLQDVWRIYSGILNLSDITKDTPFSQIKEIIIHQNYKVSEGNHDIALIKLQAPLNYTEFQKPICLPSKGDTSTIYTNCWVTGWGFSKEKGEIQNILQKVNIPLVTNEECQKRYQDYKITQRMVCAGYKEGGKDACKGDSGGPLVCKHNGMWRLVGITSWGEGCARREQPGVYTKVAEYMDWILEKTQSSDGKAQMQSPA
Chain of cynomolgus monkey plasma kallikrein (P03952 other isoform, or with tags, fused parts or gaps limits assumed): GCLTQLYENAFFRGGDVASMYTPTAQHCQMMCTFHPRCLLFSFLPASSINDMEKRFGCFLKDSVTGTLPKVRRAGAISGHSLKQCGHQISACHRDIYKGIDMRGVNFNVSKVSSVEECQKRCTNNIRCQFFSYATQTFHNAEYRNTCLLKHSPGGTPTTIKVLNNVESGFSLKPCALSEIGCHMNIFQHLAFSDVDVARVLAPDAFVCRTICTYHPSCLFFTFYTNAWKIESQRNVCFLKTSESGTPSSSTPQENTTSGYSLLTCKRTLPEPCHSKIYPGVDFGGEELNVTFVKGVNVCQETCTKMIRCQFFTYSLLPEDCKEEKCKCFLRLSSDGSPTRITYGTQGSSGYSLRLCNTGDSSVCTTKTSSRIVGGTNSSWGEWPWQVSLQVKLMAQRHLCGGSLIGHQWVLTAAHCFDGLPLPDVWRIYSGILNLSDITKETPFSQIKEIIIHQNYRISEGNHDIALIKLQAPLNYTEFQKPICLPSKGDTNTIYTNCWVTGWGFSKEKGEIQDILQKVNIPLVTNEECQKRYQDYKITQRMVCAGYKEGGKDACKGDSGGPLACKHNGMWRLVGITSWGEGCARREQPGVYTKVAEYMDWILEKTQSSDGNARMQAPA

B1: MAb4-YTE (antibody, human IgG1, kappa)
heavy: QVQLVQSGAEVKKPGSSVKVSCKASGYAFSSYWMNWVRQAPGQGLEWIGQIYPGDDDTNYNAKFQGRVTITVDKSTTTAYMELSSLRSEDTAVYFCAGSLMVTTGAPFDYWGQGTTVTVSSASTKGPSVFPLAPSSKSTSGGTAALGCLVKDYFPEPVTVSWNSGALTSGVHTFPAVLQSSGLYSLSSVVTVPSSSLGTQTYICNVNHKPSNTKVDKRVEPKSCDKTHTCPPCPAPELLGGPSVFLFPPKPKDTLYITREPEVTCVVVDVSHEDPEVKFNWYVDGVEVHNAKTKPREEQYNSTYRVVSVLTVLHQDWLNGKEYKCKVSNKALPAPIEKTISKAKGQPREPQVYTLPPSREEMTKNQVSLTCLVKGFYPSDIAVEWESNGQPENNYKTTPPVLDSDGSFFLYSKLTVDKSRWQQGNVFSCSVMHEALHNHYTQKSLSLSPG
light: DIQMTQSPSSLSASVGDRVTITCKASQDVGIAVAWYQQKPGKAPKFLIYYASHRGWGVPDRFSGSGSGTDFTLTISSLQPEDFATYFCQQYRSYPLTFGQGTKLEIKRTVAAPSVFIFPPSDEQLKSGTASVVCLLNNFYPREAKVQWKVDNALQSGNSQESVTEQDSKDSTYSLSSTLTLSKADYEKHKVYACEVTHQGLSSPVTKSFNRGEC
notes: also called Mab-YTE
For B1, the “fold higher potency than DX-2930, HMWK functional assay” value in the assay with human plasma kallikrein [1] is around 10 fold. For the same molecule, the Kd with human plasma kallikrein [2] turned out to be 1.1 nM; with human plasma kallikrein [6], 0.9 nM; in [8] it was 150 nM; with human prekallikrein [10], 670 nM; with human prekallikrein [11], 1300 nM. For the same molecule, the koff with human plasma kallikrein [2] was 7.3e-05 s⁻¹; in assay [8], 0.0277 s⁻¹; with human plasma kallikrein [9], 7.7e-05 s⁻¹; in the assay with human prekallikrein [10], 0.022 s⁻¹; in the assay with human prekallikrein [11], 0.025 s⁻¹. The kon with human plasma kallikrein [2] was determined as 69000 M⁻¹ s⁻¹; in assay [8], 184000 M⁻¹ s⁻¹; with human plasma kallikrein [9], 86000 M⁻¹ s⁻¹; with human prekallikrein [10] it was 34000 M⁻¹ s⁻¹; with human prekallikrein [11] it was 19000 M⁻¹ s⁻¹. For the same molecule, the “IC50, inhibition of pKal (1 nM) enzymatic activity on PFR-AMC” value came to 223 pM in assay [3], 352 pM in the assay with rabbit plasma kallikrein, 167 pM in the assay with rat plasma kallikrein and 290 pM with human plasma kallikrein [4]. For the same molecule, in the assay with human plasma kallikrein [5], the “IC50 (read off the curve), lower panel” value is around 20 nM. For the same molecule, the “IC50 (read off the curve), upper panel, 30 nM pKal, 600 nM HMWK” value with human plasma kallikrein [5] was around 20 nM. Further, the “fold higher affinity for plasma kallikrein than prekallikrein” value (“fold higher affinity” below) in the assay with human plasma kallikrein [7] is above 1000 fold.

B2: MAb4 (antibody, human IgG1, kappa)
heavy: not shown
light: B1 light
notes: Full length human IgG1 kappa; also called unmodified MAb4; parental MAb4
For B2, in the assay with human plasma kallikrein [5], the “IC50 (read off the curve), lower panel” value is around 20 nM. Besides, in [12], the Kd worked out at 848 nM, the koff is 0.229 s⁻¹ and the kon was determined as 270000 M⁻¹ s⁻¹.

B3: MAb4-LS (antibody, human IgG1, kappa)
heavy: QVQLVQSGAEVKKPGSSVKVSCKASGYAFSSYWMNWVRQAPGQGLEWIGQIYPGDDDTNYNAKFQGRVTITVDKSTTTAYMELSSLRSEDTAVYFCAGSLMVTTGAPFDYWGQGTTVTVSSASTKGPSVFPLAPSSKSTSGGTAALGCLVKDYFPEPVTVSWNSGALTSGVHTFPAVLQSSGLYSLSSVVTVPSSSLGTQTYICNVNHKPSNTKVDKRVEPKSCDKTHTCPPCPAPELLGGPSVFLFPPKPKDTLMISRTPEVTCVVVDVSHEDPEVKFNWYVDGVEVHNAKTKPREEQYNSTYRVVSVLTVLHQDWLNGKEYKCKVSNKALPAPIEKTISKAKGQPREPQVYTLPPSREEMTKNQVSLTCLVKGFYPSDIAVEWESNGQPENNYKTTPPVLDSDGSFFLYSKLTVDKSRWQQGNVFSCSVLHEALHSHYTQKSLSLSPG
light: B1 light
notes: Human IgG1 kappa
Regarding B3, the “IC50 (read off the curve), lower panel” value with human plasma kallikrein [5] is around 20 nM. For the same molecule, the Kd with human plasma kallikrein [6] was found to be 1.2 nM; in the assay with human plasma kallikrein [13] it was 2.2 nM; in assay [14] it was 105 nM; with human prekallikrein [15] it was 670 nM; with human prekallikrein [16] it was 1300 nM. In addition, the “fold higher affinity” value with human plasma kallikrein [7] is above 1000 fold. The koff in assay [14] worked out at 0.031 s⁻¹; with human prekallikrein [15] it was 0.023 s⁻¹; with human prekallikrein [16] it was 0.024 s⁻¹; with human plasma kallikrein [17], 0.000101 s⁻¹; with human plasma kallikrein [18] it was 8.6e-05 s⁻¹. The kon in [14] was found to be 296000 M⁻¹ s⁻¹; with human prekallikrein [15] it was 34000 M⁻¹ s⁻¹; with human prekallikrein [16], 19000 M⁻¹ s⁻¹; with human plasma kallikrein [17], 83000 M⁻¹ s⁻¹; with human plasma kallikrein [18], 39000 M⁻¹ s⁻¹.

B4: DX-2930 (antibody)
chain 1: not shown
chain 2: DIQMTQSPSTLSASVGDRVTITCRASQSISSWLAWYQQKPGKAPKLLIYKASTLESGVPSRFSGSGSGTEFTLTISSLQPDDFATYYCQQYNTYWTFGQGTKVEIKRTVAAPSVFIFPPSDEQLKSGTASVVCLLNNFYPREAKVQWKVDNALQSGNSQESVTEQDSKDSTYSLSSTLTLSKADYEKHKVYACEVTHQGLSSPVTKSFNRGEC
With B4, the Kd with human plasma kallikrein [19] was 236 nM; with human plasma kallikrein [2], 18 nM; in assay [8] it was 193 nM; with human prekallikrein [11], 144000 nM. For the same molecule, the koff with human plasma kallikrein [2] was 0.00056 s⁻¹; in assay [8] it was 0.167 s⁻¹; in the assay with human plasma kallikrein [9], 0.0061 s⁻¹; with human prekallikrein [11], 0.05 s⁻¹. Also, the kon stood at 31000 M⁻¹ s⁻¹ with human plasma kallikrein [2], 866000 M⁻¹ s⁻¹ in [8], 26000 M⁻¹ s⁻¹ in the assay with human plasma kallikrein [9] and 600 M⁻¹ s⁻¹ with human prekallikrein [11]. The “IC50, trypsin inhibition assay (0.25 nM trypsin, PFR-AMC), Data 1” value in assay [20] was 243 nM. Further, the “IC50, trypsin inhibition assay (0.25 nM trypsin, PFR-AMC), Data 2” value in assay [20] amounted to 376 nM. In addition, in the assay with human plasma kallikrein [21], the “fold reduction in KD at pH 6 versus pH 7.4” value is above 10 fold. In addition, the “IC50 (read off the curve)” value with human plasma kallikrein [22] was around 0.2 nM. Besides, the “IC50 (read off the curve), lower panel, 10 nM pKal” value with human plasma kallikrein [23] is around 3e-09 M. Besides, the “IC50 (read off the curve), lower panel” value in the assay with human plasma kallikrein [5] was around 30 nM. Moreover, in the assay with human plasma kallikrein [7], the “fold higher affinity” value is above 1000 fold.

B5: MAb1 (antibody, V domains shown)
VH: QVQLQQSGAELVKPGASVKISCKASGYAFSSYWMNWVKQRPGEGLEWIGQIYPGDDDTNYNGKFKGKATLTVDKSSTTAYMQLSSLTSEDSAVYFCAGSLMVTTGAPFDYWGQGTTLTVSS
VL: DIVMTQSHKFMSTSVGDRVSITCKASQDVGIAVAWYQQKPGQSPKFLIYWASTRHTGVPDRFTGSGSGTDFTLTIRNVQSEDLSDYFCQQYRSYPLTFGSGTKLELK
As for B5, in the assay with human plasma kallikrein [22], the “IC50 (read off the curve)” value was around 1 nM. For the same molecule, in the assay with human plasma kallikrein [23], the “IC50 (read off the curve), lower panel, 10 nM pKal” value was around 8e-09 M and the “IC50 (read off the curve), upper panel, 1 nM pKal” value was around 1e-09 M.
